Data set [1] can be described thus: Quantum yield measurements. The class given is biochemical. As to conditions: for Quantum Yield (%) bc: benzyl-coelenterazine; for Quantum Yield (%) bdc: bisdeoxycoelenterazine; for Quantum Yield (%) cp: coelenterazine-cp; for Quantum Yield (%) n: coelenterazine-n; for Quantum Yield (%) native: native coelenterazine. The method, then: For quantum yield measurements, separate 1 μl drops of protein (about 2 pm) and substrate (0.2 pm) were placed in a tube, 100 μl of 100 mM sodium phosphate buffer (pH 7) was injected by the luminometer to mix, and the total light output was integrated (generally 5-10 min). For coelenterazine-n, the protein amount was increased 10 fold and the acquisition time lengthened to insure the reaction approached completion.

Data set [2] can be described thus: Serum stability in mouse serum at 37° C. It is filed as in vitro ADME. The settings on record: mouse serum, 37° C., mono-exponential fit. The method, then:
(§1) Serum stability measurements were done by mixing 0.5 μl dilute Luciferase with either 20 μl mouse serum or 50 μl rat serum (Equitech-Bio, Kerrville, Tex.) placing the sample in a 37° C. incubator, and removing aliquots for activity testing. To calculate serum half-lives, mono-exponential decay curves were fit to the serum stability data using a Nelder/Mead Simplex non-linear least squares minimization algorithm provided by the Octave numerical programming language. Emission spectra at ambient temperature were measured using a Triax 320 (Horiba Jobin Yvon, Edison, N.J.), which incorporates an optical grating device with a liquid N2 cooled CCD detector.

Data set [3] is described as follows: Serum stability in rat serum at 37° C. The class given is in vitro ADME. The settings on record: mono-exponential fit. The method, then:
as §1

Data set [4] is described as follows: Bioluminescence emission spectra. It is filed as physicochemical. The settings on record: emission spectrum with native coelenterazine. The method, then: as §1
The nature of data set [5]: Luciferase activity of purified RLuc mutants (light output integrated over 10 s, luminometer). The class given is biochemical. As to conditions: relative to native enzyme; for Activity (relative to RLuc) bc: benzyl-coelenterazine; for Activity (relative to RLuc) bdc: bisdeoxycoelenterazine; for Activity (relative to RLuc) cp: coelenterazine-cp; for Activity (relative to RLuc) n: coelenterazine-n; for Activity (relative to RLuc) native: native coelenterazine. An excerpt: Luminometer Calibration: Light measurements were made using a Turner 20/20 and later a Turner 20/20n luminometer (Turner Designs, Sunnyvale, Calif.). The luminometers were calibrated to absolute units (photons/s) using the luminol light standard performed in dimethyl sulfoxide (DMSO). No corrections were applied for the spectral sensitivity of the luminometer, as the spectral peak of luminol chemiluminescence in DMSO (486 nm) is close to the spectral peak of Renilla Luciferase bioluminescence (482 nm).
Characterization of Renilla Luciferase Mutants: Luciferase activity was measured by adding 1 μl of sample (diluted as necessary in EB containing 1% HSA) to 100 μl room temperature 100 mM sodium phosphate buffer (pH 7), manually adding 1 μl of 0.5 μg/μl coelenterazine or analog, manually mixing, and reading for 10 s in a luminometer. The time between the addition of the luciferin and the start of measurement was approximately 4 s.

Consider five molecules from US7842469B2, “Bioluminescence resonance energy transfer (BRET) systems and methods of use thereof” (Stanford University, priority 2005, dated 2010).

B1: A55T/C124A: RLuc mutant A55T/C124A (protein)
chain: MASKVYDPEQRKRMITGPQWWARCKQMNVLDSFINYYDSEKHAENAVIFLHGNATSSYLWRHVVPHIEPVARCIIPDLIGMGKSGKSGNGSYRLLDHYKYLTAWFELLNLPKKIIFVGHDWGAALAFHYSYEHQDKIKAIVHAESVVDVIESWDEWPDIEEDIALIKSEEGEKMVLENNFFVETMLPSKIMRKLEPEEFAAYLEPFKEKGEVRRPTLSWPREIPLVKGGKPDVVQIVRNYNAYLRASDDLPKMFIESDPGFFSNAIVEGAKKFPNTEFVKVKGLHFSQEDAPDEMGKYIKSFVERVLKNEQ
Take B1: in data set [1], the “Quantum Yield (%) bc” value stood at 3.9 ± 0.1%, the “Quantum Yield (%) bdc” value was “(1.0 ± 0.9) × 10^−3%”, the “Quantum Yield (%) cp” value stood at 4.5 ± 0.1% and the “Quantum Yield (%) n” value is recorded as 5.7 ± 0.1%. Moreover, the “Quantum Yield (%) native” value in data set [1] turned out to be 5.7 ± 0.2%. The “Serum τ1/2 (h) mouse” value in data set [2] was determined as 30 h. For the same molecule, the “Serum τ1/2 (h) rat” value in data set [3] is listed as 29 h. Also, in data set [4], the “Wavelength (nm) mean” value is 504 nm and the “Wavelength (nm) peak” value is on record as 486 nm. In addition, in data set [5], the “Activity (relative to RLuc) bc” value is on record as 1.2, the “Activity (relative to RLuc) bdc” value was 2.4, the “Activity (relative to RLuc) cp” value stood at 0.58 and the “Activity (relative to RLuc) n” value is listed as 1.4. Further, the “Activity (relative to RLuc) native” value in data set [5] was found to be 1.7.

B2: C124A/K300A: RLuc mutant C124A/K300A (protein)
chain: MASKVYDPEQRKRMITGPQWWARCKQMNVLDSFINYYDSEKHAENAVIFLHGNAASSYLWRHVVPHIEPVARCIIPDLIGMGKSGKSGNGSYRLLDHYKYLTAWFELLNLPKKIIFVGHDWGAALAFHYSYEHQDKIKAIVHAESVVDVIESWDEWPDIEEDIALIKSEEGEKMVLENNFFVETMLPSKIMRKLEPEEFAAYLEPFKEKGEVRRPTLSWPREIPLVKGGKPDVVQIVRNYNAYLRASDDLPKMFIESDPGFFSNAIVEGAKKFPNTEFVKVKGLHFSQEDAPDEMGKYIASFVERVLKNEQ
Consider B2, for which the “Serum τ1/2 (h) mouse” value in data set [2] worked out at 3.5 h. Besides, the “Serum τ1/2 (h) rat” value in data set [3] came out at 3.9 h. In data set [4], the “Wavelength (nm) mean” value is recorded as 497 nm and the “Wavelength (nm) peak” value was found to be 481 nm. Further, in data set [5], the “Activity (relative to RLuc) bc” value came to 1.0, the “Activity (relative to RLuc) bdc” value turned out to be 1.3, the “Activity (relative to RLuc) cp” value was 1.1 and the “Activity (relative to RLuc) n” value amounted to 1.0. The “Activity (relative to RLuc) native” value in data set [5] turned out to be 1.1.

B3: C124A/M295I: RLuc mutant C124A/M295I (protein)
chain: MASKVYDPEQRKRMITGPQWWARCKQMNVLDSFINYYDSEKHAENAVIFLHGNAASSYLWRHVVPHIEPVARCIIPDLIGMGKSGKSGNGSYRLLDHYKYLTAWFELLNLPKKIIFVGHDWGAALAFHYSYEHQDKIKAIVHAESVVDVIESWDEWPDIEEDIALIKSEEGEKMVLENNFFVETMLPSKIMRKLEPEEFAAYLEPFKEKGEVRRPTLSWPREIPLVKGGKPDVVQIVRNYNAYLRASDDLPKMFIESDPGFFSNAIVEGAKKFPNTEFVKVKGLHFSQEDAPDEIGKYIKSFVERVLKNEQ
B3: the “Serum τ1/2 (h) mouse” value in data set [2] is given as 5.0 h. The “Serum τ1/2 (h) rat” value in data set [3] worked out at 4.9 h. Moreover, in data set [4], the “Wavelength (nm) mean” value stood at 497 nm and the “Wavelength (nm) peak” value stood at 480 nm. Also, in data set [5], the “Activity (relative to RLuc) bc” value is 0.83, the “Activity (relative to RLuc) bdc” value is 0.86, the “Activity (relative to RLuc) cp” value amounted to 0.57 and the “Activity (relative to RLuc) n” value was 0.72. The “Activity (relative to RLuc) native” value in data set [5] is recorded as 1.0.

B4: C124A/S130A: RLuc mutant C124A/S130A (protein)
chain: MASKVYDPEQRKRMITGPQWWARCKQMNVLDSFINYYDSEKHAENAVIFLHGNAASSYLWRHVVPHIEPVARCIIPDLIGMGKSGKSGNGSYRLLDHYKYLTAWFELLNLPKKIIFVGHDWGAALAFHYAYEHQDKIKAIVHAESVVDVIESWDEWPDIEEDIALIKSEEGEKMVLENNFFVETMLPSKIMRKLEPEEFAAYLEPFKEKGEVRRPTLSWPREIPLVKGGKPDVVQIVRNYNAYLRASDDLPKMFIESDPGFFSNAIVEGAKKFPNTEFVKVKGLHFSQEDAPDEMGKYIKSFVERVLKNEQ
As to B4, in data set [1], the “Quantum Yield (%) bc” value came to 3.4 ± 0.04%, the “Quantum Yield (%) bdc” value is listed as “(6.7 ± 0.3) × 10^−3%”, the “Quantum Yield (%) cp” value turned out to be 5.0 ± 0.1% and the “Quantum Yield (%) n” value came out at 5.9 ± 0.2%. Further, in data set [1], the “Quantum Yield (%) native” value turned out to be 5.3 ± 0.1%. The “Serum τ1/2 (h) mouse” value in data set [2] amounted to 18 h. Also, the “Serum τ1/2 (h) rat” value in data set [3] turned out to be 14 h. Further, in data set [4], the “Wavelength (nm) mean” value stood at 498 nm and the “Wavelength (nm) peak” value worked out at 482 nm. Moreover, in data set [5], the “Activity (relative to RLuc) bc” value is given as 1.4, the “Activity (relative to RLuc) bdc” value is reported as 2.6, the “Activity (relative to RLuc) cp” value turned out to be 1.7 and the “Activity (relative to RLuc) n” value is listed as 1.4. Further, the “Activity (relative to RLuc) native” value in data set [5] is given as 1.7.

B5: C124A/K136R: RLuc mutant C124A/K136R (protein)
chain: MASKVYDPEQRKRMITGPQWWARCKQMNVLDSFINYYDSEKHAENAVIFLHGNAASSYLWRHVVPHIEPVARCIIPDLIGMGKSGKSGNGSYRLLDHYKYLTAWFELLNLPKKIIFVGHDWGAALAFHYSYEHQDRIKAIVHAESVVDVIESWDEWPDIEEDIALIKSEEGEKMVLENNFFVETMLPSKIMRKLEPEEFAAYLEPFKEKGEVRRPTLSWPREIPLVKGGKPDVVQIVRNYNAYLRASDDLPKMFIESDPGFFSNAIVEGAKKFPNTEFVKVKGLHFSQEDAPDEMGKYIKSFVERVLKNEQ
For the molecule B5, in data set [1], the “Quantum Yield (%) bc” value is reported as 3.3 ± 0.1%, the “Quantum Yield (%) bdc” value was “(7.1 ± 0.3) × 10^−3%”, the “Quantum Yield (%) cp” value is on record as 5.1 ± 0.1% and the “Quantum Yield (%) n” value is 6.0 ± 0.1%. Further, the “Quantum Yield (%) native” value in data set [1] is listed as 5.4 ± 0.1%. For the same molecule, the “Serum τ1/2 (h) mouse” value in data set [2] was 12 h. In addition, the “Serum τ1/2 (h) rat” value in data set [3] is reported as 11 h. Besides, in data set [4], the “Wavelength (nm) mean” value came to 498 nm and the “Wavelength (nm) peak” value is recorded as 482 nm. In data set [5], the “Activity (relative to RLuc) bc” value was found to be 2.1, the “Activity (relative to RLuc) bdc” value came to 2.6, the “Activity (relative to RLuc) cp” value came to 1.9 and the “Activity (relative to RLuc) n” value is 1.9. Moreover, the “Activity (relative to RLuc) native” value in data set [5] stood at 2.5 ± 0.3.
